According to PMC9004659:

Biological target: Recombinant human BAX (wild type) (human) (UniProt Q07812)
Experiment: SEC

Substance: Recombinant human BAX (wild type) (from UniProt Q07812-1) (natural protein)
- share of the BAX population shifted toward oligomers: > 70%
